Molecular target: His-tagged KCNE1 C-terminus (E1C) (human) (UniProt P15382)
Test: SEC

## His-tagged KCNE1 C-terminus (E1C) (from UniProt P15382 67-129) (domain or fragment)
  stoichiometry N: 2

From article PMC2888147
